Laboratory results published in publication PMC10120838, “Dual functions of PsmiR172b-PsTOE3 module in dormancy release and flowering in tree peony (Paeonia suffruticosa)”.

Biological target: PsTOE3 (MBP-PsTOE3; PsAP2 in primer table) (Paeonia suffruticosa, UniProt A0A189CP77 1-510)
Test: EMSA; poly(dI-dC); DIG Gel Shift Kit (Roche) per manufacturer, probe 0.155 uM, poly(dI-dC); protein suspended in 20 mM Tris-HCl, 0.2 M NaCl, 1 mM EDTA, 10 mM beta-mercaptoethanol; pH and temperature not stated
Settings: protein: recombinant, purified on Ni-NTA, label: DIG, blunt

PsTOE3 (MBP-PsTOE3; PsAP2 in primer table), sequence (A0A189CP77 entry or part of it): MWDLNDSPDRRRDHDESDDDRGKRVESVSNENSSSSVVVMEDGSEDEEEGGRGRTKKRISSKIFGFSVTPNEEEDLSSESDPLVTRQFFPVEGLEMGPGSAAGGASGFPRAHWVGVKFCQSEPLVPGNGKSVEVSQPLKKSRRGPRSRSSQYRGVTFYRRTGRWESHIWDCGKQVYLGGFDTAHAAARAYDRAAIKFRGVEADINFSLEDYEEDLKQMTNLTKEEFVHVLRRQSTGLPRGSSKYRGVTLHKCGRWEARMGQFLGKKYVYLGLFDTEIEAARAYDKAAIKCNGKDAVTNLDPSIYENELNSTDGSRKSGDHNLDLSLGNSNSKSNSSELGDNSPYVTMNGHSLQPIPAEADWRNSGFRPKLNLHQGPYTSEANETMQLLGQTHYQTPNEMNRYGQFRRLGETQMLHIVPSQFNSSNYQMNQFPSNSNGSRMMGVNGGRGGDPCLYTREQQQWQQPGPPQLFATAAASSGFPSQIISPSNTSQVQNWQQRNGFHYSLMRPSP

Binder | binding result (R oligo S211 is printed as the plain complement (3'-5' order) although the header says 5'-3') | binding result (R oligo S209 is printed as the plain complement (3'-5' order) although the header says 5'-3')
mutant C-repeat probe (4x AGCGAC) (dsDNA) DNA 1: AAGCGACAGCGACAGCGACAGCGAC DNA 2: GTCGCTGTCGCTGTCGCTGTCGCTT | no binding | –
C-repeat probe of PsEBB1 (4x ACCGAC) (dsDNA) DNA 1: AACCGACACCGACACCGACACCGAC DNA 2: GTCGGTGTCGGTGTCGGTGTCGGTT | – | binds
